# Key:
# human monocytes = experiment: SeaHorse cellular flux assay (OCR, ECAR); format: cell-based; conditions: C1q 25 μg ml-1 together with HMGB1 3 μg/ml, 24 h
# Method: Cell metabolism analysis using SeaHorse Cellular Flux assay. […] One hour prior to measurement, culture medium was exchanged for assay medium (unbuffered DMEM (Sigma), supplemented with 10 mM Glucose, 1 mM Pyruvate and 2 mM Glutamine for mitochondrial assays, or with 2 mM Glutamine alone for glycolytic assays. Reagents were injected during the measurement to achieve final concentrations of oligomycin (1 μM), carbonyl cyanide p-(trifluoromethoxy) phenylhydrazone (FCCP) ([…]), Rotenone/antimycin A (0.5 μM). Glucose (10 mM), and 2-Deoxy-D glucose (50 mM). Oxygen consumption rate (OCR) and Extracellular acidification rate (ECAR) values were measured using a SeaHorse XfP instrument (SeaHorse bioscience). Measured values were normalized to the number of live cells present in each well as determined by a trypan blue staining by the end of each run. For OCR/ECAR ratio calculations, an average of the last two basal readings was used for both OCR and ECAR.
# sRAGE-C1q-HMGB1 complex = biological target: T1, sRAGE-C1q-HMGB1 complex; experiment: RAGE-C1q-HMGB1 trimolecular complex formation (SPR and C1q-coated beads); format: binding, human; conditions: sRAGE immobilized, C1q 200 nM, HMGB1 500 nM, either order
# T1 construct: soluble RAGE (sRAGE) was immobilized on the sensor chip; C1q purified from pooled normal human sera; purchased R&D Systems (hrRAGE); Complement Technology (C1q)
# Method: The dissociation time was set for 1 minute.
# Trimolecular complex assay: Biotinylated-C1q (20 μg/ml) was precoated to SpeedBeads™ (Streptavidin-conjugated microbeads, Thermo Scientific). Beads were saturated with HMGB1, then incubated with RAGE.
# RAGE = biological target: T2, RAGE (Homo sapiens, UniProt Q15109); experiment: SPR assay of C1q and RAGE binding; conditions: read-out: KD of C1q and RAGE binding, 25° C., 1:1 binding ratio supposed
# T2 construct: purchased R&D Systems
# Method: Surface Plasmon Resonance analysis (SPR): For real-time binding interaction studies, a BIAcore T200 instrument (GE Healthcare) was used. […] A 1:1 mixture of N-hydroxysuccinimide and N-ethyl-N-(dimethyaminopropyl) carbodiimide was used to activate 2 flow-cells of the CMS chip. […] The analytes were diluted in 1×PBS+0.01% (vol/vol) tween-20 buffer. The analytes were sequentially injected at a flow rate of 30 μl/min for 60 s at 25° C. The KD was dertermined using the BIAcore evaluation software 2.0 (GE Healthcare) supposing a 1:1 binding ratio.
# T1 sequence (Q15109 23-342 limits assumed): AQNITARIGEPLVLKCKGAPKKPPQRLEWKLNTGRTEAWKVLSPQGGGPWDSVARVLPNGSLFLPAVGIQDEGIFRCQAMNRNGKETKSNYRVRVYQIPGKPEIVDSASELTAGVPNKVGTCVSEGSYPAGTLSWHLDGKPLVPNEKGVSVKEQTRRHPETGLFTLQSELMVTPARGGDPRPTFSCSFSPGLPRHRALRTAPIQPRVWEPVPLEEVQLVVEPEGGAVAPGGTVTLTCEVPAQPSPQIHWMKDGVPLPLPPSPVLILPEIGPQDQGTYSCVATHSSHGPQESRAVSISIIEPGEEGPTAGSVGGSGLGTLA
# T1 sequence (P09429 whole entry, further chain): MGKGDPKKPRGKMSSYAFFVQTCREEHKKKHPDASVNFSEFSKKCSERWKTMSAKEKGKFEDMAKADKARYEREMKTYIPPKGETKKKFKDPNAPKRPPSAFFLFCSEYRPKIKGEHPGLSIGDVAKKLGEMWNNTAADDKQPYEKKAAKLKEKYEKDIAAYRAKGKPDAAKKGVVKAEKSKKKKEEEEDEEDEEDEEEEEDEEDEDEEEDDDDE
# T1 sequence (P02745 23-245, further chain): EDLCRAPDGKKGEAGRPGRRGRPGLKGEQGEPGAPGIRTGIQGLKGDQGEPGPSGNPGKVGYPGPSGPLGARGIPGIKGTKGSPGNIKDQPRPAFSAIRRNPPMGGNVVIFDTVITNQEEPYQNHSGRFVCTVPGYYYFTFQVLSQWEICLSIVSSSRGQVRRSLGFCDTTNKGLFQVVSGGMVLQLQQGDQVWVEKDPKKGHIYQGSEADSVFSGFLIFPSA
# T1 sequence (P02746 28-253, further chain): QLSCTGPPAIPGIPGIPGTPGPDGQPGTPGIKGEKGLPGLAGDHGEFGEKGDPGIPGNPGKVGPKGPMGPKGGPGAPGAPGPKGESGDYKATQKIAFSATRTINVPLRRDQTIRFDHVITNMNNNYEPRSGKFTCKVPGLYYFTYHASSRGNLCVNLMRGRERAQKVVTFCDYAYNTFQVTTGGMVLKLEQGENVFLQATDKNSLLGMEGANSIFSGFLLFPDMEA
# T1 sequence (P02747 29-245, further chain): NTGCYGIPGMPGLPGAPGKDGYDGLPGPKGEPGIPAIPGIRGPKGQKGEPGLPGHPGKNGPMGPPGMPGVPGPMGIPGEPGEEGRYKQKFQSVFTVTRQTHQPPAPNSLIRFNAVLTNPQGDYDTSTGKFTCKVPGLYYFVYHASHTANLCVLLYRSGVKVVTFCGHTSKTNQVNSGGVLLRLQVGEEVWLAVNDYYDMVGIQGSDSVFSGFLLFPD
# T2 sequence (Q15109 23-342 limits assumed): as the sequence (Q15109 23-342 limits assumed) above
substance,measurement,setting,value
"C1q: C1q purified from pooled normal human sera, obtained from Complement Technology",HMGB1-induced alteration in cellular metabolism,human monocytes,prevented the alteration in cellular metabolism
same,trimolecular complex formation with HMGB1 and sRAGE,sRAGE-C1q-HMGB1 complex,formed a trimolecular complex
same,Kd,RAGE,855 nM

# Reference: patent publication US12037419B2 (The Feinstein Institutes for Medical Research, priority 2016, dated 2024)
